Measurements taken from patent publication US20180251563A1 (SUBDOMAIN, published 2018).

T1: CD123 (target of Example 19) (Homo sapiens (Human), UniProt P26951 19-305, limits assumed)
T1 sequence: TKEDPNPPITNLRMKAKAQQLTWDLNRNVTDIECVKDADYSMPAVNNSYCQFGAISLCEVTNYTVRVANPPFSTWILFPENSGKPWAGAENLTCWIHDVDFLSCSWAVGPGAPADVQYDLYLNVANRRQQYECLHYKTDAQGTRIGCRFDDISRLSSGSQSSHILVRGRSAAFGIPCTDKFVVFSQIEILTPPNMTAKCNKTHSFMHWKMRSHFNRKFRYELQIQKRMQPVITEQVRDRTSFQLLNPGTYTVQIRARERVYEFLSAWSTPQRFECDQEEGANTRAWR

B1: SEQ ID NO 73 (designed binder)
chain: MGSWYDFKEDLADIKWMLEALGGSEAELAEFENVIAYFENDLQEYKGKGNPEVEALRKEAAAIRDELQAYRHN
B2: SEQ ID NO 69 (designed binder)
chain: MGSWWEFTDRLEAIEDRLWALGGSEAELAHFEDSIAQFEQELQWYKGKGNPEVEALADEADAIESELHAYRHN
B3: SEQ ID NO 68 (designed binder)
chain: MGSWWEFTDRLDAIFDRLWALGGSEAELAAFEESIAIFEQDLQYYKGKGNPEVEALEYEANAIQYELEAYRHN
B4: SEQ ID NO 93 (designed binder)
chain: MGSWSEFWQRLEAIEDRLWALGGSEAELAAFEKEIAAFESELQAYKGKGNPEVEWLRENAAMIRDELQAYRHN
B5: SEQ ID NO 100 (designed binder)
chain: MGSWIEFYDRLEAIYDRLDALGGSEAELAAFEKEIAAFESELQAYKGKGNPEVEWLREDAAFIRSWLQAYRHN
B6: SEQ ID NO 83 (designed binder)
chain: MGSWFNFKEELAVIKFQLEALGGSEAELAFFEWVIADFEDDLQEYKGKGNPEVEALRKEAAAIRDELQAYRHN
B7: SEQ ID NO 67 (designed binder)
chain: MGSWSEFVDRLDAIFDRLWALGGSEAELAWFEDTIAHFEWNLQEYKGKGNPEVEALNGEADAITDELHAYRHN
B8: SEQ ID NO 95 (designed binder)
chain: MGSWDEFYYRLEAIEMRLGALGGSEAELAAFEKEIAAFESELQAYKGKGNPEVEELRHYAAQIRHMLQAYRHN
B9: SEQ ID NO 80 (designed binder)
chain: MGSWQIFKGELAYIKQYLEALGGSEAELAFFEFDIAEFEEDLQYYKGKGNPEVEALRKEAAAIRDELQAYRHN
B10: SEQ ID NO 66 (designed binder)
chain: MGSWEEFDKRLDAITRRLMALGGSEAELAEFESTIAWFEWDLQEYKGKGNPEVEALDWEAYAIDYELGAYRHN
B11: SEQ ID NO 90 (designed binder)
chain: MGSWILFKDDLAWIKETLEALGGSEAELAFFEDNIADFEEQLQGYKGKGNPEVEALRKEAAAIRDELQAYRHN
B12: SEQ ID NO 91 (designed binder)
chain: MGSWQWFKDDLAYIKETLEALGGSEAELALFEDMIADFEFELQWYKGKGNPEVEALRKEAAAIRDELQAYRHN
B13: SEQ ID NO 75 (designed binder)
chain: MGSWVTFKDELADIKDFLEALGGSEAELAFFEVDIAEFEAELQFYKGKGNPEVEALRKEAAAIRDELQAYRHN
B14: SEQ ID NO 86 (designed binder)
chain: MGSWYVFKDELAEIKQFLEALGGSEAELAWFEDDIAEFETQLQHYKGKGNPEVEALRKEAAAIRDELQAYRHN
B15: SEQ ID NO 92 (designed binder)
chain: MGSWEEFHSRLDAIDDRLWALGGSEAELAAFEKEIAAFESELQAYKGKGNPEVEWLRWEAATIRETLQAYRHN
B16: SEQ ID NO 70 (designed binder)
chain: MGSWEWFKSDLASIKWELEALGGSEAELAWFEHDIAEFEEDLQWYKGKGNPEVEALRKEAAAIRDELQAYRHN
B17: SEQ ID NO 76 (designed binder)
chain: MGSWSWFKEDLADIKFELEALGGSEAELAWFELDIADFEQALQQYKGKGNPEVEALRKEAAAIRDELQAYRHN
B18: SEQ ID NO 89 (designed binder)
chain: MGSWSWFKEDLASIKAVLEALGGSEAELAFFESDIAEFEQELQYYKGKGNPEVEALRKEAAAIRDELQAYRHN
B19: SEQ ID NO 77 (designed binder)
chain: MGSWWEFKEDLAEIKWFLEALGGSEAELAWFEHDIAKFEFELQYYKGKGNPEVEALRKEAAAIRDELQAYRHN
B20: SEQ ID NO 88 (designed binder)
chain: MGSWFWFKEDLAFIKEDLEALGGSEAELAWFEDGIAFFEWDLQDYKGKGNPEVEALRKEAAAIRDELQAYRHN
B21: SEQ ID NO 74 (designed binder)
chain: MGSWSFFKDDLAEIKYFLEALGGSEAELAMFEQTIAEFEYDLQDYKGKGNPEVEALRKEAAAIRDELQAYRHN
B22: SEQ ID NO 72 (designed binder)
chain: MGSWEFFKEVLAEIKYDLEALGGSEAELAWFETDIAGFEIDLQVYKGKGNPEVEALRKEAAAIRDELQAYRHN
B23: SEQ ID NO 84 (designed binder)
chain: MGSWYMFKEELADIKWYLEALGGSEAELAWFEDDIAGFEWDLQAYKGKGNPEVEALRKEAAAIRDELQAYRHN
B24: SEQ ID NO 85 (designed binder)
chain: MGSWHVFKTELADIKFYLEALGGSEAELAMFELWIAEFEHELQDYKGKGNPEVEALRKEAAAIRDELQAYRHN
B25: SEQ ID NO 99 (designed binder)
chain: MGSWDEFGRRLYAIEWRLYALGGSEAELAAFEKEIAAFESELQAYKGKGNPEVEKLREIAAVIRSNLQAYRHN
notes: also called cg06
B26: SEQ ID NO 82 (designed binder)
chain: MGSWYYFKDELADIKWDLEALGGSEAELAWFEMLIAQFELDLQWYKGKGNPEVEALRKEAAAIRDELQAYRHN
B27: SEQ ID NO 96 (designed binder)
chain: MGSWIEFNMRLDAIYERLVALGGSEAELAAFEKEIAAFESELQAYKGKGNPEVEWLRKVAANIRLELQAYRHN
B28: SEQ ID NO 123 (designed binder)
chain: MGSWTEFNLRLDAIYDRLMALGGSEAELAAFEKEIAAFESELQAYKGKGNPEVEWLRASAAAIRVELQAYRHN
B29: SEQ ID NO 124 (designed binder)
chain: MGSWSEFYLRLDAIYDRLDALGGSEAELAAFEKEIAAFESELQAYKGKGNPEVEWLRKTAANIREELQAYRHN
B30: SEQ ID NO 125 (designed binder)
chain: MGSWSEFHVRLDAIYARLDALGGSEAELAAFEKEIAAFESELQAYKGKGNPEVERLREWAANIRRELQAYRHN
B31: SEQ ID NO 98 (designed binder)
chain: MGSWVEFNIRLDAIYERLYALGGSEAELAAFEKEIAAFESELQAYKGKGNPEVEKLRHWAASIRRELQAYRHN
B32: SEQ ID NO 94 (designed binder)
chain: MGSWTEFAWRLDAIYDRLLALGGSEAELAAFEKEIAAFESELQAYKGKGNPEVEWLRHVAANIRRELQAYRHN
B33: SEQ ID NO 103 (designed binder)
chain: MGSWIEFEVRLDAIYNRLAALGGSEAELAAFEKEIAAFESELQAYKGKGNPEVERLRRYAANIRHELQAYRHN
B34: SEQ ID NO 97 (designed binder)
chain: MGSWSEFNMRLDAIYERLTALGGSEAELAAFEKEIAAFESELQAYKGKGNPEVEWLRHSAARIRLELQAYRHN
B35: SEQ ID NO 105 (designed binder)
chain: MGSWYEFHHRLDAIYERLLALGGSEAELAAFEKEIAAFESELQAYKGKGNPEVEWLRSSAANIRKELQAYRHN
B36: SEQ ID NO 71 (designed binder)
chain: MGSWDHFKNDLAWIKKHLEALGGSEAELAEFEAVIAYFELYLQGYKGKGNPEVEALRKEAAAIRDELQAYRHN
B37: SEQ ID NO 81 (designed binder)
chain: MGSWYIFKEDLAEIKEELEALGGSEAELAYFEEEIALFEMELQWYKGKGNPEVEALRKEAAAIRDELQAYRHN
B38: SEQ ID NO 78 (designed binder)
chain: MGSWDEFKEDLAHIKTDLEALGGSEAELALFEDEIADFEMYLQHYKGKGNPEVEALRKEAAAIRDELQAYRHN
B39: SEQ ID NO 87 (designed binder)
chain: MGSWTEFKGELAEIKWILEALGGSEAELAFFEDEIAAFEWDLQKYKGKGNPEVEALRKEAAAIRDELQAYRHN
B40: SEQ ID NO 79 (designed binder)
chain: MGSWFMFKEELADIKDWLEALGGSEAELASFESYIAWFEQDLQWYKGKGNPEVEALRKEAAAIRDELQAYRHN

Molecular target: T1, CD123 (target of Example 19)
Assay: library selection; assay not described

Binding result, binds:
B1
B2
B3
B4
B5
B6
B7
B8
B9
B10
B11
B12
B13
B14
B15
B16
B17
B18
B19
B20
B21
B22
B23
B24
B25
B26
B27
B28
B29
B30
B31
B32
B33
B34
B35
B36
B37
B38
B39
B40
